Data reported in US20190298824A1, “ALBUMIN-BINDING IMMUNOMODULATORY COMPOSITIONS AND METHODS OF USE THEREOF” (THE UNITED STATES OF AMERICA, as represented by the …, priority 2016, published 2019).
Read-outs that look alike come from different tables or passages of the source. Blank lines part the entries; values can stand above or below the substance they belong to. Where no end group is shown, it is not given here.

Legend:
[1] = set-up: species or system BALB/c mice; conditions: mouse, in vivo
Text: FIGS. 8A-8E. Biodistribution and LN retention of CpG on day3 and day5, as determined by ROI signal quantification of PET images and γ-counting of isolated organs. (A) PET quantification of the % ID of different forms of CpG in major organs on Day3. (B) Detailed PET quantification of the % ID of different forms of CpG in IN and AX LNs on Day3. (C) γ-counting quantification of the % ID/g of different forms of CpG in LNs on Day3. (D) γ-counting quantification of the % ID/g of different forms of CpG in major organs on Day5. (E) γ-counting quantification of the % ID/g of different forms of CpG in LNs on Day5. Due to signal decay over 5 days, the radioactivity was too low to be detected by PET on day5, so the % injection dose on Day5 was not determined by PET. ID: injection dose; ID/g: injection dose/gram of tissue.
The blood had less than 4% ID/g for all tested formulations. On day 5 post injection, even though the radioactivity of ^64Cu-labeled vaccines was too low to be sensitively detected by PET, the radioactivity of ex vivo organs were sensitively measured to determine the biodistribution profile (FIGS. 8D-8E).

[2] = mouse, in vivo, sc
Method: (A) Structures, formulations, and radiolabeling strategies of CpG derivatives for PET-based screening. (B) Representative coronal PET images showing FVB mice at 6 h post s.c. injection of CpG derivatives at tail base. […] White arrow heads mark IN and AX LNs. (C) Amounts of CpG derivatives in IN and AX LNs quantified from 3D-reconstructed, decay-corrected PET images (n=4-8).
Coronal (coro), transverse (trans), and 3D projection (proj) of PET images showing efficient LN-targeted delivery and whole-body distribution of MH2C over 3 days post injection. White arrow heads mark IN and AX LNs. The scale bar for 3D proj was based on the maximal signal intensity in each image. (Injection dose: 120 μCi; ID: injection dose).
Mice were s.c. injected with ^64Cu-radiolabeled AlbiCpG, followed by PET imaging to reveal its 3D biodistribution in mice over 3 days (FIG. 5B). […] Based on PET, decay-corrected radioactivity in draining inguinal (IN) LNs, and axillary (AX) LNs. LNs were quantified as the percentage of injection dose (% ID) (FIG. 5C).

albumin [3] = test: albumin binding of AlbiTrp2; conditions: R^2=0.88
Text: FIG. 21A-21C. TEM (A) and AFM (B) images of albumin/AlbiTrp2 nanocomplexes. The length-height graph in (B) was shown for the marked crossline in AFM image. (C) Albumin binding of AlbiTrp2 recovered the MEB fluorescence.
(§1) Tyrosinase-related protein 2 (Trp2), a melanoma-associated subunit Ag, was used in this study. Trp2 with an N-terminal cysteine was conjugated with MEB to prepare albumin-binding MEB-Trp2 (denoted as AlbiTrp2). Hydrophilic MEB increased the water solubility of AlbiTrp2 relative to Trp2, and the resulting amphiphilic AlbiTrp2 self-assembled into nanoparticles in aqueous solution (FIG. 21A, 21B). […] To study LN-targeted Trp2 delivery, ^64Cu-labeled AlbiTrp2 was s.c. injected at the tail base of FVB mice for PET imaging (FIG. 22A).

[4] = PET imaging of 64Cu-labeled AlbiTrp2 LN delivery; format: in vivo, FVB mice; conditions: within 3 days
Text: FIG. 22A-22B. […] White arrows mark LNs.
as §1

[5] = water solubility of MEB-peptide conjugates; format: physicochemical
Text: as §1
(§2) Encouraged by the efficient delivery of peptide antigen, AlbiVax-based neoantigen delivery was exploited for personalized tumor immunotherapy. Adpgk, a neoantigen [ASMTN(R→M)ELM] (SEQ ID NO: 86) in MC38 (colon cancer) tumor cells^7 was used. The conjugation of hydrophilic MEB improved the water solubility of MEB-Adpgk (denoted as AlbiAdpgk).

[6] = PET imaging of vaccine uptake in LNs of B16F10 tumor-bearing mice; format: in vivo, C57BL/6 mice
Text: FIG. 23A-23D. Representative PET images (A) and the corresponding quantification (B) showing the uptake of AlbiCpG (MEB-(HEG)2-CpG) in draining IN LNs and AX LNs of B16F10 tumor-bearing C57BL/6 mice. […] (C-D) Representative PET images (c) and the corresponding quantification (D) showing the uptake of AlbiTrp2 in LNs (IN and AX) of B16F10 tumor-bearing C57BL/6 mice. (Coro: coronal; trans: transverse; proj: projection; ID: injection dose; ID/g: ID/gram of organ weight)
For immunotherapy, C57BL/6 mice s.c. inoculated with 3×10^5 B16F10 cells were treated with AlbiCpG (2 nmole CpG equivalents)+AlbiTrp2 (20 μg) on days 6, 12, and 18 post inoculation. […] Furthermore, using a combination of multiple synergistic therapeutics can be used.

albumin [7] = test: method not named; recovery of MEB fluorescence on albumin binding (FIG. 21C)
Target sequence in this assay (P02768 25-609): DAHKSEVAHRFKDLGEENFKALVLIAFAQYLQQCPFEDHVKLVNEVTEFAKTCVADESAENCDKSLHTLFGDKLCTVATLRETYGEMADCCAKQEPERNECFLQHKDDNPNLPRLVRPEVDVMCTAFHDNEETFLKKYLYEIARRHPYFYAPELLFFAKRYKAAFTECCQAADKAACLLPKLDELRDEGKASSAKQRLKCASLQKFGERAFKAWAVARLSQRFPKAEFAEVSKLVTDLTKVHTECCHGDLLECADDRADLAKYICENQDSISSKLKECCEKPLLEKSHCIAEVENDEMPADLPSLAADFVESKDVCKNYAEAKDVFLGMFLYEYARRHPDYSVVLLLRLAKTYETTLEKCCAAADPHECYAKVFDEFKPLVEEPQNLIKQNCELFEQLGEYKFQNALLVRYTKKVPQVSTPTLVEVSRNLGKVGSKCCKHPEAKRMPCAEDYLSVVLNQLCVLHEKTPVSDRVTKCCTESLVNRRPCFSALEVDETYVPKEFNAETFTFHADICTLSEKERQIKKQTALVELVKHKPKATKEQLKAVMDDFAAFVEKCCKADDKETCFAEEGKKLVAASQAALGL

[8] = PET imaging of 64Cu-labeled AlbiAdpgk LN delivery; format: in vivo, FVB mice
Method: FIG. 25A-25D. Representative coronal and transverse of PET images (A) at 6 h post injection and quantification (B) of AlbiAdpgk, free Adpgk, and IFA(Adpgk) in IN and AX LNs of FVB mice (n=4/group). White arrows mark the LNs. (C) Quantified biodistribution of ^64Cu-labeled AlbiAdpgk in organs by γ-counting of excised organs at 48 h post injection. (D) % ID at injection sites quantified from decay-corrected PET scans.
as §2

[9] = system: BMDCs and RAW264.7 macrophages; test: ELISA of proinflammatory factors in culture medium (in vitro immunostimulation); format: cell-based

% ID/g in inguinal LNs [1]: 8.3±4.7 % ID/g
radioactivity density in axillary LNs [1]: 3.2±1.2 %/g
Substance: CpG 1826
accumulation / retention in LNs [2]: no apparent accumulation in any of the LNs

Substance: AlbiTrp2: Trp2 peptide with N-terminal cysteine conjugated with MEB (CSVYDFFVWL)
Kd (albumin [3]): 790 nM
AUC in LNs relative to free Trp2 [4]: 91 fold
water solubility [5]: increased
delivery to LNs in tumor-bearing mice [6]: efficiently delivered to LNs except tumor draining axillary LNs

Kd (albumin [7]): 790 nM
Substance: MEB-Trp2 (albumin-binding conjugate of maleimide-functionalized truncated Evans Blue with Trp2 peptide bearing an N-terminal cysteine) (from UniProt P29812 180-188)

Substance: AlbiAdpgk: MEB conjugate of Adpgk neoantigen ASMTNMELM (SEQ ID NO: 86) of MC38 (also: MEB (albumin-binding) conjugate, site not given here)
amount trapped at the injection sites relative to IFA(Adpgk) ([8]; PET): Significantly less
AUC in IN and AX LNs relative to Adpgk or IFA(Adpgk) ([8]; within 2 days): 43 fold
water solubility ([5]; relative to unconjugated peptide): improved

Substance: MEB-GpC: MEB conjugate of control GpC ODN (TCCATGAGCTTCCTGAGCTT, SEQ ID NO: 34) (DNA, backbone and methylation of C not given here; further chemistry not fully specified)
secretion of proinflammatory factors (ELISA) ([9]; BMDCs and RAW264.7 macrophages): did not stimulate these cells significantly more potently than the background
immunostimulatory activity (ELISA of culture medium) ([9]; RAW264.7 macrophages, alone or premixed with HSA): inactive for immunostimulation
